Experiment [1] addresses T1, human glucose-dependent insulinotropic polypeptide (GIP) receptor (human, UniProt P48546 22-466).
T1 construct: whole, on cells; Assayed as crude membranes of stably transfected CHO cells; also called hGIPR; human GIP receptor
T1 sequence (looked up): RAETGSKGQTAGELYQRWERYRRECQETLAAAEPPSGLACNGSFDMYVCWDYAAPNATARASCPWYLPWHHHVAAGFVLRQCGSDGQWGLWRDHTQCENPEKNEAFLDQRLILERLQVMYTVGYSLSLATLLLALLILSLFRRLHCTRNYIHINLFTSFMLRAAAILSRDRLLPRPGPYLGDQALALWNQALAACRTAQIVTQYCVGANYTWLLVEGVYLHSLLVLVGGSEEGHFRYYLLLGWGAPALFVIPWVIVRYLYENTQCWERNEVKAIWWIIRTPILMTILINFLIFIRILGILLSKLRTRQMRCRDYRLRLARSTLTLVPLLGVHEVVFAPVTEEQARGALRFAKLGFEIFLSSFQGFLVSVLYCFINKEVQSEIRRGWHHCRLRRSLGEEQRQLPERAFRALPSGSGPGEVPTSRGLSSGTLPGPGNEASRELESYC
The experiment in a line: SPA, displacement of [125I]-GIP from hGIPR membranes, 0.1% bacitracin.

A further experiment concerns the target T2, human glucagon receptor (human, UniProt P47871 26-477).
T2 construct: whole, on cells; Assayed as crude membranes of stably transfected HEK293 cells; also called hGcgR; GcgR
The experiment in a line: SPA, displacement of [125I]-Gcg from hGcgR membranes, 0.1% bacitracin. Summed up:
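Binding buffer: 25 mM HEPES pH 7.4, 2.5 mM CaCl₂, 1 mM MgCl₂, 0.003% Tween-20, protease inhibitors without EDTA. Counted by scintillation after 12 h incubation/settling at room temperature. Four-parameter nonlinear fit; Kᵢ given as geometric mean ± SEM of independent replicates run on different days.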
A general note: Loss of bound radioactivity is the signal in a displacement assay; it reports binding, not function.

The target of another experiment is T3, human GLP-1 receptor (human, UniProt P43220 24-463).
T3 construct: whole, on cells; Assayed as crude membranes of stably transfected HEK293 cells; also called hGLP1R; hGLP-1R
The experiment in a line: SPA, displacement of [125I]-GLP-1 from hGLP-1R membranes, 0.1% bacitracin. Summed up:
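Binding buffer: 25 mM HEPES pH 7.4, 2.5 mM CaCl₂, 1 mM MgCl₂, 0.1% bacitracin, 0.003% Tween-20, protease inhibitors without EDTA. Four-parameter nonlinear regression; Kᵢ given as geometric mean ± SEM, n = independent replicates run on different days.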

Starred links: 1 amine or outer side, 2 acyl side, 3 side chain; linkers in the order of their positions; H or OH if unused. Non-standard residues stand in square brackets, D forms with d. Groups on a side chain read outwards from the residue. No end group written: not given here. *: point of attachment. C20 diacid = O=C(O)CCCCCCCCCCCCCCCCCCC(=O)*; C18 diacid = O=C(O)CCCCCCCCCCCCCCCCC(=O)*; αMePhe(2-F) = C[C@](N)(Cc1ccccc1F)C(=O)O; γGlu = O=C(O)[C@H](CCC(=O)[*:2])N[*:1]; AEEA = NCCOCCOCC(=O)O; Aib = CC(C)(N)C(=O)O

T2 sequence (P47871 26-477): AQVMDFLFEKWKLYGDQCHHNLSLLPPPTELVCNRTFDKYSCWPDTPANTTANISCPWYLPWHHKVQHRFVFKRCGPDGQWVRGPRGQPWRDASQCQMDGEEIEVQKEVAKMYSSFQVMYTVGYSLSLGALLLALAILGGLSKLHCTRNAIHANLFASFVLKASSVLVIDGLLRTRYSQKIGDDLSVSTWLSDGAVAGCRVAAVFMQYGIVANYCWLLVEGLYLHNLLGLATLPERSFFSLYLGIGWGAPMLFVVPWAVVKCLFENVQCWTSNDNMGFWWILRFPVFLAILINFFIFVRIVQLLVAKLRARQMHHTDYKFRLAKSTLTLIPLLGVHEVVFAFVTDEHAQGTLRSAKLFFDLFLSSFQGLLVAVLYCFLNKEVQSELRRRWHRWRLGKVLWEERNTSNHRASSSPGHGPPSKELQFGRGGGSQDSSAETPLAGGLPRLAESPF

B1: Example 26 (peptide)
peptide: Y[Aib]EGT[αMePhe(2-F)]ISDYSIALDKK([AEEA-AEEA-γGlu-C20 diacid])HQ[Aib]EFVNWLLAGGPSSGAPPPS-NH2
modifications: N-terminus assumed
SMILES: CC[C@H](C)[C@H](NC(=O)[C@H](CO)NC(=O)[C@H](Cc1ccc(O)cc1)NC(=O)[C@H](CC(=O)O)NC(=O)[C@H](CO)NC(=O)[C@@H](NC(=O)[C@](C)(Cc1ccccc1F)NC(=O)[C@@H](NC(=O)CNC(=O)[C@H](CCC(=O)O)NC(=O)C(C)(C)NC(=O)[C@@H](N)Cc1ccc(O)cc1)[C@@H](C)O)[C@@H](C)CC)C(=O)N[C@@H](C)C(=O)N[C@@H](CC(C)C)C(=O)N[C@@H](CC(=O)O)C(=O)N[C@@H](CCCCN)C(=O)N[C@@H](CCCCNC(=O)COCCOCCNC(=O)COCCOCCNC(=O)CC[C@H](NC(=O)CCCCCCCCCCCCCCCCCCC(=O)O)C(=O)O)C(=O)N[C@@H](Cc1c[nH]cn1)C(=O)N[C@@H](CCC(N)=O)C(=O)NC(C)(C)C(=O)N[C@@H](CCC(=O)O)C(=O)N[C@@H](Cc1ccccc1)C(=O)N[C@H](C(=O)N[C@@H](CC(N)=O)C(=O)N[C@@H](Cc1c[nH]c2ccccc12)C(=O)N[C@@H](CC(C)C)C(=O)N[C@@H](CC(C)C)C(=O)N[C@@H](C)C(=O)NCC(=O)NCC(=O)N1CCC[C@H]1C(=O)N[C@@H](CO)C(=O)N[C@@H](CO)C(=O)NCC(=O)N[C@@H](C)C(=O)N1CCC[C@H]1C(=O)N1CCC[C@H]1C(=O)N1CCC[C@H]1C(=O)N[C@@H](CO)C(N)=O)C(C)C
By Ki is commonly meant a measure of affinity in units of concentration, obtained from inhibition or displacement. A higher Ki goes with a looser hold on the target. On to B1, for which the Ki in experiment [1] came to 0.045 nM; in the experiment with human glucagon receptor, 74.1 nM; with human GLP-1 receptor it was 16.5 nM.

B2: Example 37 (peptide)
peptide: Y[Aib]EGT[αMePhe(2-F)]ISDYSIALDKK([AEEA-AEEA-γGlu-C20 diacid])HQ[Aib]DFVEYLLEGGPSSGAPPPS-NH2
modifications: N-terminus assumed
SMILES: CC[C@H](C)[C@H](NC(=O)[C@H](CO)NC(=O)[C@H](Cc1ccc(O)cc1)NC(=O)[C@H](CC(=O)O)NC(=O)[C@H](CO)NC(=O)[C@@H](NC(=O)[C@](C)(Cc1ccccc1F)NC(=O)[C@@H](NC(=O)CNC(=O)[C@H](CCC(=O)O)NC(=O)C(C)(C)NC(=O)[C@@H](N)Cc1ccc(O)cc1)[C@@H](C)O)[C@@H](C)CC)C(=O)N[C@@H](C)C(=O)N[C@@H](CC(C)C)C(=O)N[C@@H](CC(=O)O)C(=O)N[C@@H](CCCCN)C(=O)N[C@@H](CCCCNC(=O)COCCOCCNC(=O)COCCOCCNC(=O)CC[C@H](NC(=O)CCCCCCCCCCCCCCCCCCC(=O)O)C(=O)O)C(=O)N[C@@H](Cc1c[nH]cn1)C(=O)N[C@@H](CCC(N)=O)C(=O)NC(C)(C)C(=O)N[C@@H](CC(=O)O)C(=O)N[C@@H](Cc1ccccc1)C(=O)N[C@H](C(=O)N[C@@H](CCC(=O)O)C(=O)N[C@@H](Cc1ccc(O)cc1)C(=O)N[C@@H](CC(C)C)C(=O)N[C@@H](CC(C)C)C(=O)N[C@@H](CCC(=O)O)C(=O)NCC(=O)NCC(=O)N1CCC[C@H]1C(=O)N[C@@H](CO)C(=O)N[C@@H](CO)C(=O)NCC(=O)N[C@@H](C)C(=O)N1CCC[C@H]1C(=O)N1CCC[C@H]1C(=O)N1CCC[C@H]1C(=O)N[C@@H](CO)C(N)=O)C(C)C
Regarding B2, the figures for the Ki (in experiment [1]; with human glucagon receptor; with human GLP-1 receptor) were 0.026 nM, 51.4 nM and 83.9 nM, respectively.

B3: Example 40 (peptide)
peptide: Y[Aib]EGT[αMePhe(2-F)]ISDYSIALDKK([AEEA-AEEA-γGlu-C20 diacid])HQ[Aib]DFVEWLLETGPSSGAPPPS-NH2
modifications: N-terminus assumed
SMILES: CC[C@H](C)[C@H](NC(=O)[C@H](CO)NC(=O)[C@H](Cc1ccc(O)cc1)NC(=O)[C@H](CC(=O)O)NC(=O)[C@H](CO)NC(=O)[C@@H](NC(=O)[C@](C)(Cc1ccccc1F)NC(=O)[C@@H](NC(=O)CNC(=O)[C@H](CCC(=O)O)NC(=O)C(C)(C)NC(=O)[C@@H](N)Cc1ccc(O)cc1)[C@@H](C)O)[C@@H](C)CC)C(=O)N[C@@H](C)C(=O)N[C@@H](CC(C)C)C(=O)N[C@@H](CC(=O)O)C(=O)N[C@@H](CCCCN)C(=O)N[C@@H](CCCCNC(=O)COCCOCCNC(=O)COCCOCCNC(=O)CC[C@H](NC(=O)CCCCCCCCCCCCCCCCCCC(=O)O)C(=O)O)C(=O)N[C@@H](Cc1c[nH]cn1)C(=O)N[C@@H](CCC(N)=O)C(=O)NC(C)(C)C(=O)N[C@@H](CC(=O)O)C(=O)N[C@@H](Cc1ccccc1)C(=O)N[C@H](C(=O)N[C@@H](CCC(=O)O)C(=O)N[C@@H](Cc1c[nH]c2ccccc12)C(=O)N[C@@H](CC(C)C)C(=O)N[C@@H](CC(C)C)C(=O)N[C@@H](CCC(=O)O)C(=O)N[C@H](C(=O)NCC(=O)N1CCC[C@H]1C(=O)N[C@@H](CO)C(=O)N[C@@H](CO)C(=O)NCC(=O)N[C@@H](C)C(=O)N1CCC[C@H]1C(=O)N1CCC[C@H]1C(=O)N1CCC[C@H]1C(=O)N[C@@H](CO)C(N)=O)[C@@H](C)O)C(C)C
In the case of B3, the Ki stood at 0.0594 nM in experiment [1], 50.9 nM with human glucagon receptor and 302 nM in the experiment with human GLP-1 receptor.

B4: Example 36 (peptide)
peptide: Y[Aib]EGT[αMePhe(2-F)]ISDYSIALDKK([AEEA-AEEA-γGlu-C20 diacid])HQ[Aib]DFVEYLLETGPSSGAPPPS-NH2
modifications: N-terminus assumed
SMILES: CC[C@H](C)[C@H](NC(=O)[C@H](CO)NC(=O)[C@H](Cc1ccc(O)cc1)NC(=O)[C@H](CC(=O)O)NC(=O)[C@H](CO)NC(=O)[C@@H](NC(=O)[C@](C)(Cc1ccccc1F)NC(=O)[C@@H](NC(=O)CNC(=O)[C@H](CCC(=O)O)NC(=O)C(C)(C)NC(=O)[C@@H](N)Cc1ccc(O)cc1)[C@@H](C)O)[C@@H](C)CC)C(=O)N[C@@H](C)C(=O)N[C@@H](CC(C)C)C(=O)N[C@@H](CC(=O)O)C(=O)N[C@@H](CCCCN)C(=O)N[C@@H](CCCCNC(=O)COCCOCCNC(=O)COCCOCCNC(=O)CC[C@H](NC(=O)CCCCCCCCCCCCCCCCCCC(=O)O)C(=O)O)C(=O)N[C@@H](Cc1c[nH]cn1)C(=O)N[C@@H](CCC(N)=O)C(=O)NC(C)(C)C(=O)N[C@@H](CC(=O)O)C(=O)N[C@@H](Cc1ccccc1)C(=O)N[C@H](C(=O)N[C@@H](CCC(=O)O)C(=O)N[C@@H](Cc1ccc(O)cc1)C(=O)N[C@@H](CC(C)C)C(=O)N[C@@H](CC(C)C)C(=O)N[C@@H](CCC(=O)O)C(=O)N[C@H](C(=O)NCC(=O)N1CCC[C@H]1C(=O)N[C@@H](CO)C(=O)N[C@@H](CO)C(=O)NCC(=O)N[C@@H](C)C(=O)N1CCC[C@H]1C(=O)N1CCC[C@H]1C(=O)N1CCC[C@H]1C(=O)N[C@@H](CO)C(N)=O)[C@@H](C)O)C(C)C
In the case of B4, the Ki in experiment [1] worked out at 0.0683 nM; with human glucagon receptor it was 201 nM; in the experiment with human GLP-1 receptor it was 393 nM.

B5: Example 30 (peptide)
peptide: Ac-[dY]AEGT[αMePhe(2-F)]ISDYSIALDKK([AEEA-AEEA-γGlu-C18 diacid])HQ[Aib]EFVNYLLAGGPSSGAPPPS-NH2
SMILES: CC[C@H](C)[C@H](NC(=O)[C@H](CO)NC(=O)[C@H](Cc1ccc(O)cc1)NC(=O)[C@H](CC(=O)O)NC(=O)[C@H](CO)NC(=O)[C@@H](NC(=O)[C@](C)(Cc1ccccc1F)NC(=O)[C@@H](NC(=O)CNC(=O)[C@H](CCC(=O)O)NC(=O)[C@H](C)NC(=O)[C@@H](Cc1ccc(O)cc1)NC(C)=O)[C@@H](C)O)[C@@H](C)CC)C(=O)N[C@@H](C)C(=O)N[C@@H](CC(C)C)C(=O)N[C@@H](CC(=O)O)C(=O)N[C@@H](CCCCN)C(=O)N[C@@H](CCCCNC(=O)COCCOCCNC(=O)COCCOCCNC(=O)CC[C@H](NC(=O)CCCCCCCCCCCCCCCCC(=O)O)C(=O)O)C(=O)N[C@@H](Cc1c[nH]cn1)C(=O)N[C@@H](CCC(N)=O)C(=O)NC(C)(C)C(=O)N[C@@H](CCC(=O)O)C(=O)N[C@@H](Cc1ccccc1)C(=O)N[C@H](C(=O)N[C@@H](CC(N)=O)C(=O)N[C@@H](Cc1ccc(O)cc1)C(=O)N[C@@H](CC(C)C)C(=O)N[C@@H](CC(C)C)C(=O)N[C@@H](C)C(=O)NCC(=O)NCC(=O)N1CCC[C@H]1C(=O)N[C@@H](CO)C(=O)N[C@@H](CO)C(=O)NCC(=O)N[C@@H](C)C(=O)N1CCC[C@H]1C(=O)N1CCC[C@H]1C(=O)N1CCC[C@H]1C(=O)N[C@@H](CO)C(N)=O)C(C)C
Consider B5, for which the Ki in experiment [1] worked out at 0.037 nM; with human glucagon receptor it was 407 nM; with human GLP-1 receptor, 26.5 nM.

The record behind these values is patent US20210032299A1 (Eli Lilly, published 2021).
